Patent US20020115216A1

Molecular target: asialoglycoprotein receptor (UniProt P34927)
Assay: cell-based or functional assay

Sequence of UniProt P34927 (P34927 whole entry, chain 1 of 2): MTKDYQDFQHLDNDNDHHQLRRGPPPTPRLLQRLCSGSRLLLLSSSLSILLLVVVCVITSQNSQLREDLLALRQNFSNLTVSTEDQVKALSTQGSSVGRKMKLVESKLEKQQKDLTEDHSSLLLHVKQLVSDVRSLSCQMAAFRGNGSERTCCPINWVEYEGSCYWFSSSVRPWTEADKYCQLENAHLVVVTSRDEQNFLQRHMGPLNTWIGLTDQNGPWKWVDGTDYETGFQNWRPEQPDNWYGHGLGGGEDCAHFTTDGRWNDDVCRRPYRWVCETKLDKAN
Sequence of UniProt P34927 (P24721 whole entry, chain 2 of 2, further chain): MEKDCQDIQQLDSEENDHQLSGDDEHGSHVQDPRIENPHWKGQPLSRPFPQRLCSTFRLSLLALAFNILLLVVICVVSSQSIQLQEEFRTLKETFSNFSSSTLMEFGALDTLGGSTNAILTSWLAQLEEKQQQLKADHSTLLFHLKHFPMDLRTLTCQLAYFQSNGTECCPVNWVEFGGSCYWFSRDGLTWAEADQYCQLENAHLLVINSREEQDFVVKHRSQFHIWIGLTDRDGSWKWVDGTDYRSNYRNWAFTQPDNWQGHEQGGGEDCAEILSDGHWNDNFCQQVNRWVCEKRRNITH

## asialofetuin (from UniProt P12763 19-359) (ligand)
  inhibition of uptake/expression of the cis pT/GFP/SB in the liver (confocal microscopy of GFP, mice coadministered asialofetuin): > 80%
